Several values for one entry are separate records, joined by “and”; a condition that tells them apart may be missing. Equal values may be shown once.
These molecules were tested against T1, Active human KLK5 (human, UniProt Q9Y337 67-293) (assay: not given).

Molecule | IC50 (read off the curve)
Human LEKTI D5 rabbit Fc (Fc fusion) | 200 nM

Each molecule was assayed against T1, Active human KLK5 (assay: cell-based or functional assay).

Molecule | IC50 (M), inhibition of kallikrein protease activity (fluorogenic peptide substrate) | IC50 (read off the curve)
Human LEKTI D5 rabbit Fc (Fc fusion) | 1.03e-10 M | 
Rabbit antibody 10273 (antibody, V domains shown) VH: QSVEESGGRLVTPGTPLTLTCTVSGFSLSSYGMSWVRQAPGKGLEWIGIISSSGSTYYASWAKGRFTISKTSTTVDLKIASPTTEDTATYFCARDHIYRYDDYGDYPTYYGMDPWGPGTLVTVSS VL: AVVLTQTPSPMSAAVGGTVTISCQSSQSVYNNNDLAWYQQKPGQPPKLLIYRASTLASGVPSRFSGSGSGTQFTLTISGVQCDDAATYYCLGGYDDDVDTYTFGGGTEVVVK |  | ~50 nM

These molecules were tested against T1, Active human KLK5 (assay: SPR (Biacore T200, 25 C); IgG captured on anti-human IgG Fc, human KLK5 as analyte; 1:1 model).
Procedure: (§1) The kinetics of these grafts for binding to human KLK5 were assessed by surface plasmon resonance (Biacore T200) at 25° C.
(§2) A goat anti-human IgG Fc specific antibody (Jackson ImmunoResearch) was immobilised on a CM5 Sensor Chip via amine coupling chemistry to a level of approximately 7000RU. Each analysis cycle consisted of capture of the anti-KLK5 IgG molecules to the anti Fc surface, injection of KLK5 analyte (prepared in house) for 180 s at 30 μl/min followed by 600 s dissociation. At the end of each cycle the surface was regenerated at a flowrate of 10 μL/min using a 60 s injection of 50 mM HCl followed by a 30 s injection of 5 mM NaOH and a final 60 s injection of 50 mM HCl. Human KLK5 was titrated from 20 nM to 0.74 nM (3×3-fold serial dilutions) in HBS-EP+running buffer (GE Healthcare) supplemented with NaCl to a final concentration of 300 mM. Buffer blank injections were included to subtract instrument noise and drift.
(§3) Kinetic parameters were determined using a 1:1 binding model using Biacore T200 Evaluation software.

Kd | koff | kon | Molecule
5.77 nM | 0.0016 s⁻¹ | 277000 M⁻¹ s⁻¹ | 10273 gL2-Q1RgH1-D19N-Y16F (antibody, human IgG4 S228P, kappa, V domains shown, sulphation (+80 Da) of Tyr 9 of CDR-H3, 75% of heavy chain (Table 7), Humanized graft, hIgG4P) VH: EVQLVESGGGLVQPGGSLRLSCAVSGFSLSSYGMSWVRQAPGKGLEWIGIISSSGSTYYASWAKGRFTISKDSSKNTVYLQMNSLRAEDTAVYYCARDHIYRYDDYGDYPTYFGMNPWGQGTTVTVSS VL: AIQLTQSPSSLSASVGDRVTITCRSSQSVYNNNDLAWYQQKPGKAPKLLIYRASTLASGVPSRFSGSGSGTDFTLTISSLQPEDFATYYCLGGYDDDVDTYTFGGGTKVEIKR
0.249 nM | 0.000139 s⁻¹ | 558000 M⁻¹ s⁻¹ | 10273 gL2-Q1RgH1-D19N-Y15F (antibody, human IgG4 S228P, kappa, V domains shown, sulphation (+80 Da) of Tyr 9 of CDR-H3, 85% of heavy chain (Table 7), Humanized graft, hIgG4P) VH: EVQLVESGGGLVQPGGSLRLSCAVSGFSLSSYGMSWVRQAPGKGLEWIGIISSSGSTYYASWAKGRFTISKDSSKNTVYLQMNSLRAEDTAVYYCARDHIYRYDDYGDYPTFYGMNPWGQGTTVTVSS VL: AIQLTQSPSSLSASVGDRVTITCRSSQSVYNNNDLAWYQQKPGKAPKLLIYRASTLASGVPSRFSGSGSGTDFTLTISSLQPEDFATYYCLGGYDDDVDTYTFGGGTKVEIKR
0.164 nM | 8.45e-05 s⁻¹ | 514000 M⁻¹ s⁻¹ | 10273 gL2gH1 (antibody, human IgG4 S228P, kappa, V domains shown, sulphation (+80 Da) of Tyr 9 of CDR-H3, 95% of heavy chain (hIgG4P, Table 7), Humanized graft) VH: EVQLVESGGGLVQPGGSLRLSCAVSGFSLSSYGMSWVRQAPGKGLEWIGIISSSGSTYYASWAKGRFTISKDSSKNTVYLQMNSLRAEDTAVYYCARDHIYRYDDYGDYPTYYGMDPWGQGTTVTVSS VL: AIQLTQSPSSLSASVGDRVTITCQSSQSVYNNNDLAWYQQKPGKAPKLLIYRASTLASGVPSRFSGSGSGTDFTLTISSLQPEDFATYYCLGGYDDDVDTYTFGGGTKVEIKR

More lines, now with the values behind:

Molecule | Kd | koff | kon
10273 gL2-Q1RgH1-D19N-Y12F (antibody, human IgG4 S228P, kappa, V domains shown, sulphation (+80 Da) of Tyr 9 of CDR-H3, 75% of heavy chain (Table 7), Humanized graft, hIgG4P) VH: EVQLVESGGGLVQPGGSLRLSCAVSGFSLSSYGMSWVRQAPGKGLEWIGIISSSGSTYYASWAKGRFTISKDSSKNTVYLQMNSLRAEDTAVYYCARDHIYRYDDYGDFPTYYGMNPWGQGTTVTVSS VL: AIQLTQSPSSLSASVGDRVTITCRSSQSVYNNNDLAWYQQKPGKAPKLLIYRASTLASGVPSRFSGSGSGTDFTLTISSLQPEDFATYYCLGGYDDDVDTYTFGGGTKVEIKR | 0.319 nM | 0.000138 s⁻¹ | 432000 M⁻¹ s⁻¹
10273 gL2-Q1RgH1-D19N-Y6F (antibody, human IgG4 S228P, kappa, V domains shown, sulphation (+80 Da) of Tyr 9 of CDR-H3, 75% of heavy chain (Table 7), Humanized graft, hIgG4P) VH: EVQLVESGGGLVQPGGSLRLSCAVSGFSLSSYGMSWVRQAPGKGLEWIGIISSSGSTYYASWAKGRFTISKDSSKNTVYLQMNSLRAEDTAVYYCARDHIYRFDDYGDYPTYYGMNPWGQGTTVTVSS VL: AIQLTQSPSSLSASVGDRVTITCRSSQSVYNNNDLAWYQQKPGKAPKLLIYRASTLASGVPSRFSGSGSGTDFTLTISSLQPEDFATYYCLGGYDDDVDTYTFGGGTKVEIKR | 0.625 nM | 0.000186 s⁻¹ | 298000 M⁻¹ s⁻¹
10273 gL2-Q1RgH1-D19N-Y4F (antibody, human IgG4 S228P, kappa, V domains shown, sulphation (+80 Da) of Tyr 9 of CDR-H3, 85% of heavy chain (Table 7), Humanized graft, hIgG4P) VH: EVQLVESGGGLVQPGGSLRLSCAVSGFSLSSYGMSWVRQAPGKGLEWIGIISSSGSTYYASWAKGRFTISKDSSKNTVYLQMNSLRAEDTAVYYCARDHIFRYDDYGDYPTYYGMNPWGQGTTVTVSS VL: AIQLTQSPSSLSASVGDRVTITCRSSQSVYNNNDLAWYQQKPGKAPKLLIYRASTLASGVPSRFSGSGSGTDFTLTISSLQPEDFATYYCLGGYDDDVDTYTFGGGTKVEIKR | 1.15 nM | 0.000519 s⁻¹ | 451000 M⁻¹ s⁻¹
10273 gL2-Q1RgH1-D19N-Y9F (antibody, human IgG4 S228P, kappa, V domains shown, Humanized graft, hIgG4P) VH: EVQLVESGGGLVQPGGSLRLSCAVSGFSLSSYGMSWVRQAPGKGLEWIGIISSSGSTYYASWAKGRFTISKDSSKNTVYLQMNSLRAEDTAVYYCARDHIYRYDDFGDYPTYYGMNPWGQGTTVTVSS VL: AIQLTQSPSSLSASVGDRVTITCRSSQSVYNNNDLAWYQQKPGKAPKLLIYRASTLASGVPSRFSGSGSGTDFTLTISSLQPEDFATYYCLGGYDDDVDTYTFGGGTKVEIKR | 0.554 nM | 0.0002 s⁻¹ | 362000 M⁻¹ s⁻¹
10273 gL2-Q1RgH1-D19N-T14S (antibody, human IgG4 S228P, kappa, V domains shown, sulphation (+80 Da) of Tyr 9 of CDR-H3, 65% of heavy chain (Table 7), Humanized graft, hIgG4P) VH: EVQLVESGGGLVQPGGSLRLSCAVSGFSLSSYGMSWVRQAPGKGLEWIGIISSSGSTYYASWAKGRFTISKDSSKNTVYLQMNSLRAEDTAVYYCARDHIYRYDDYGDYPSYYGMNPWGQGTTVTVSS VL: AIQLTQSPSSLSASVGDRVTITCRSSQSVYNNNDLAWYQQKPGKAPKLLIYRASTLASGVPSRFSGSGSGTDFTLTISSLQPEDFATYYCLGGYDDDVDTYTFGGGTKVEIKR | 0.644 nM | 0.000165 s⁻¹ | 257000 M⁻¹ s⁻¹
10273 gL2-Q1RgH1-D19N-T14V (antibody, human IgG4 S228P, kappa, V domains shown, sulphation (+80 Da) of Tyr 9 of CDR-H3, 75% of heavy chain (Table 7), Humanized graft, hIgG4P) VH: EVQLVESGGGLVQPGGSLRLSCAVSGFSLSSYGMSWVRQAPGKGLEWIGIISSSGSTYYASWAKGRFTISKDSSKNTVYLQMNSLRAEDTAVYYCARDHIYRYDDYGDYPVYYGMNPWGQGTTVTVSS VL: AIQLTQSPSSLSASVGDRVTITCRSSQSVYNNNDLAWYQQKPGKAPKLLIYRASTLASGVPSRFSGSGSGTDFTLTISSLQPEDFATYYCLGGYDDDVDTYTFGGGTKVEIKR | 6.9 nM | 0.00251 s⁻¹ | 364000 M⁻¹ s⁻¹

What follows are molecules tested against T1, Active human KLK5 (assay: SPR (Biacore T200, 25 C); IgG captured on anti-human IgG Fc, human KLK5 as analyte; 1:1 model; duplicate sample).
Procedure: as §1, §2, §3

Molecule | Kd | koff | kon
10273gL2-Q1RgH1-D19N (antibody, human IgG4 S228P, kappa, V domains shown, sulphation (+80 Da) of Tyr 9 of CDR-H3, 80% of heavy chain (Table 7), Humanized graft, hIgG4P) VH: EVQLVESGGGLVQPGGSLRLSCAVSGFSLSSYGMSWVRQAPGKGLEWIGIISSSGSTYYASWAKGRFTISKDSSKNTVYLQMNSLRAEDTAVYYCARDHIYRYDDYGDYPTYYGMNPWGQGTTVTVSS VL: AIQLTQSPSSLSASVGDRVTITCRSSQSVYNNNDLAWYQQKPGKAPKLLIYRASTLASGVPSRFSGSGSGTDFTLTISSLQPEDFATYYCLGGYDDDVDTYTFGGGTKVEIKR | 0.41 nM and 0.309 nM | 0.000175 s⁻¹ and 0.000133 s⁻¹ | 427000 M⁻¹ s⁻¹ and 257000 M⁻¹ s⁻¹

What follows are molecules tested against T1, Active human KLK5 (assay: SPR; rabbit antibody 10273 captured on anti-rabbit Fc and saturated with 20 nM human KLK5, LEKTI D5 Fab fusion as analyte (KLK5 in complex with 10273); 1:1 model).
Procedure: (§4) 20 nM of human KLK5 was then injected until the surface reached saturation. LEKTI D5 Fab fusion protein (generated as described in example 1) was then injected at concentrations between 30 μM and 100 nM. Values from buffer only injections were first subtracted from those obtained with the analytes before fitting to a 1:1 binding kinetic model in Biacore™ evaluation software (GE Life Sciences™)
(§5) As reference, LEKTI D5 Fab fusion protein was immobilised to the chip surface prior to monitoring the interaction with human KLK5.

Molecule | koff | kon
LEKTI D5 Fab fusion (other, also called LEKTI D5 Fab fusion protein; LEKTI D5Fab fusion protein) heavy: EVQLLESGGGLVQPGGSLRLSCAVSGIDLSNYAINWVRQAPGKGLEWIGIIWASGTTFYATWAKGRFTISRDNSGGGGSGGGGSREIVKLCSQYQNQAKNGILFCTRENDPIRGPDGKMHGNLCSMCQAYFQAENEEKKKAEARARSGGGGGGGGSKNTVYLQMNSLRAEDTAVYYCARTVPGYSTAPYFDLWGQGTLVTVSSASTKGPSVFPLAPSSKSTSGGTAALGCLVKDYFPEPVTVSWNSGALTSGVHTFPAVLQSSGLYSLSSVVTVPSSSLGTQTYICNVNHKPSNTKVDKKVEPKSCHHHHHHHHHH light: DIQMTQSPSSVSASVGDRVTITCQSSPSVWSNFLSWYQQKPGKAPKLLIYEASKLTSGVPSRFSGSGSGTDFTLTISSLQPEDFATYYCGGGYSSISDTTFGGGTKVEIKRTVAAPSVFIFPPSDEQLKSGTASVVCLLNNFYPREAKVQWKVDNALQSGNSQESVTEQDSKDSTYSLSSTLTLSKADYEKHKVYACEVTHQGLSSPVTKSFNRGEC | 0.000565 s⁻¹ | 28700 M⁻¹ s⁻¹

Each molecule was assayed against T1, Active human KLK5 (assay: SPR; rabbit antibody 10273 captured on anti-rabbit Fc and saturated with 20 nM human KLK5, LEKTI D5 Fab fusion as analyte (KLK5 in complex with 10273); average value n = 2; human KLK5 already in complex with captured rabbit antibody 10273; LEKTI D5 Fab fusion as analyte; average n = 2).
Procedure: as §4, §5

Molecule | Kd
LEKTI D5 Fab fusion (other, also called LEKTI D5 Fab fusion protein; LEKTI D5Fab fusion protein) heavy: EVQLLESGGGLVQPGGSLRLSCAVSGIDLSNYAINWVRQAPGKGLEWIGIIWASGTTFYATWAKGRFTISRDNSGGGGSGGGGSREIVKLCSQYQNQAKNGILFCTRENDPIRGPDGKMHGNLCSMCQAYFQAENEEKKKAEARARSGGGGGGGGSKNTVYLQMNSLRAEDTAVYYCARTVPGYSTAPYFDLWGQGTLVTVSSASTKGPSVFPLAPSSKSTSGGTAALGCLVKDYFPEPVTVSWNSGALTSGVHTFPAVLQSSGLYSLSSVVTVPSSSLGTQTYICNVNHKPSNTKVDKKVEPKSCHHHHHHHHHH light: DIQMTQSPSSVSASVGDRVTITCQSSPSVWSNFLSWYQQKPGKAPKLLIYEASKLTSGVPSRFSGSGSGTDFTLTISSLQPEDFATYYCGGGYSSISDTTFGGGTKVEIKRTVAAPSVFIFPPSDEQLKSGTASVVCLLNNFYPREAKVQWKVDNALQSGNSQESVTEQDSKDSTYSLSSTLTLSKADYEKHKVYACEVTHQGLSSPVTKSFNRGEC | 13.4 nM

Reference: patent US20230070261A1 (UCB, published 2023)
